In article PMC6783867, “Synthesis and Characterization of Cry2Ab–AVM Bioconjugate: Enhanced Affinity to Binding Proteins and Insecticidal Activity” (Toxins, 2019):

Target: T1, 10th and 11th cadherin repeat domains of the Plutella xylostella cadherin (PxCR10–11), GST-tagged (Plutella xylostella)
T1 construct: Plutella xylostella cadherin, 10th and 11th CR domains, residues 1258–1602 aa; also called truncated recombinant P. xylostella cadherin; source: Escherichia coli expression system, purified (GST-Sefinose prepacked gravity column)
Experiment: BLI; Octet Red 96; GST-tagged PxCR10–11 loaded onto anti-GST biosensors; toxin 38.5 to 576.9 nM in solution; 400 s association, 400 s dissociation; 10 mM GSH, 50 mM Tris, pH 8.0; 1:1 binding model
Settings: both partners purified

B1: Bacillus thuringiensis insecticidal protein (Bt toxin) Cry2Ab30 (natural protein)
chain: MNSVLNSGRTTICDAYNVAAHDPFSFQHKSLDTVQKEWTEWKKNNHSLYLDPIVGTVASFLLKKVGSLVGKRILSELRNLIFPSGSTNLMQDILRETEKFLNQRLNTDTLARVNAELTGLQANVEEFNRQVDNFLNPNRNAVPLSITSSVNTMQQLFLNRLPQFQMQGYQLLLLPLFAQAANLHLSFIRDVILNADEWGISAATLRTYRDYLKNYTRDYSNYCINTYQSAFKGLNTRLHDMLEFRTYMFLNVFEYVSIWSLFKYQSLLVSSGANLYASGSGPQQTQSFTSQDWPFLYSLFQVNSNYVLNGFSGARLSNTFPNIVGLPGSTTTHALLAARVNYSGGISSGDIGASPFNQNFNCSTFLPPLLTPFVRSWLDSGSDREGVATVTNWQTESFETTLGLRSGAFTARGNSNYFPDYFIRNISGVPLVVRNEDLRRPLHYNEIRNIASPSGTPGGARAYMVSVHNRKNNIHAVHENGSMIHLAPNDYTGFTISPIHATQVNNQTRTFISEKFGNQGDSLRFEQNNTTARYTLRGNGNSYNLYLRVSSIGNSTIRVTINGRVYTATNVNTTTNNDGVNDNGARFSDINIGNVVASSNSDVPLDINVTLNSGTQFDLMNIMLVPTNISPLY
Kd: 28.7 nM
